From US20070054332A1, “Syndecan 1 ectodomain inhibits cancer” (priority 2005, published 2007)
“Also recorded” adds a separate entry of the source.

Assays:
[1] = test system: MDA-MB-231 cell spreading; settings: soluble ectodomain, dose-dependent; cited from earlier work
[2] = test system: S115 mouse mammary tumor cells; settings: nanomolar concentrations; Mali et al. (1994); cited from earlier work
MDA-MB-231 cell = settings: soluble ectodomain, dose-dependent; cited from earlier work
[3] = target: T1, Sdc1 and the αvβ5 integrin complex (Mus musculus, UniProt O70309+P43406); settings: B82L cells, competing concentration; McQuade et al., 2006; cited from earlier work
T1 construct: immunoprecipitation of Sdc1 from the B82L cells co-precipitates the integrin with the Sdc1; endogenous in cells; host or cells: B82L mouse fibroblasts
T1 sequence (P43406 31-1044): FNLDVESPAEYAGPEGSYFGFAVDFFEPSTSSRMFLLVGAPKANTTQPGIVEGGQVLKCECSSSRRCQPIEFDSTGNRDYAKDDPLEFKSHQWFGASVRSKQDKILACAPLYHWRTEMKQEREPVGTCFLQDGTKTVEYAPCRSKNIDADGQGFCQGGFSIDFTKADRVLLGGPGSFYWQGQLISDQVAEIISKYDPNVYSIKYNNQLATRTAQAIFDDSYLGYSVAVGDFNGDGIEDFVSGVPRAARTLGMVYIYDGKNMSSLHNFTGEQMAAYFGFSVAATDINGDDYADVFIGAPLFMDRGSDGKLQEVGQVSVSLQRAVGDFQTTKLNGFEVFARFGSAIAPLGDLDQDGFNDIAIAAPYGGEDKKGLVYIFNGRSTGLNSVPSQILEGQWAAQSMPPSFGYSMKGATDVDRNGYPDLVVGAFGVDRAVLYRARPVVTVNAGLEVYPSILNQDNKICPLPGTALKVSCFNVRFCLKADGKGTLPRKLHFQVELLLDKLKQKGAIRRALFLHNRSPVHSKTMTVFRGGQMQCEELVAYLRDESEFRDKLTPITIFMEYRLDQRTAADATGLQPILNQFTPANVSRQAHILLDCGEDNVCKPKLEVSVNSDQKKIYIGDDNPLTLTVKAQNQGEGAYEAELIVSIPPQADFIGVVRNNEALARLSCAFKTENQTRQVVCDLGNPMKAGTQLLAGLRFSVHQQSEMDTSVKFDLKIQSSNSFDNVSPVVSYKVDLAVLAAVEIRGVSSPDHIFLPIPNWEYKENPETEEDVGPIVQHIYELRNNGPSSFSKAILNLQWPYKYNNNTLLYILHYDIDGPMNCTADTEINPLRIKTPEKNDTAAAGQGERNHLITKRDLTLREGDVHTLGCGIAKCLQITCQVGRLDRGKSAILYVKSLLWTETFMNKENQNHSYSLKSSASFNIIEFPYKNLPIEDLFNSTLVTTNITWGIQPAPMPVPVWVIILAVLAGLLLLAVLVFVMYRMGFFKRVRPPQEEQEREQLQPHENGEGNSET
T1 sequence (O70309 24-798): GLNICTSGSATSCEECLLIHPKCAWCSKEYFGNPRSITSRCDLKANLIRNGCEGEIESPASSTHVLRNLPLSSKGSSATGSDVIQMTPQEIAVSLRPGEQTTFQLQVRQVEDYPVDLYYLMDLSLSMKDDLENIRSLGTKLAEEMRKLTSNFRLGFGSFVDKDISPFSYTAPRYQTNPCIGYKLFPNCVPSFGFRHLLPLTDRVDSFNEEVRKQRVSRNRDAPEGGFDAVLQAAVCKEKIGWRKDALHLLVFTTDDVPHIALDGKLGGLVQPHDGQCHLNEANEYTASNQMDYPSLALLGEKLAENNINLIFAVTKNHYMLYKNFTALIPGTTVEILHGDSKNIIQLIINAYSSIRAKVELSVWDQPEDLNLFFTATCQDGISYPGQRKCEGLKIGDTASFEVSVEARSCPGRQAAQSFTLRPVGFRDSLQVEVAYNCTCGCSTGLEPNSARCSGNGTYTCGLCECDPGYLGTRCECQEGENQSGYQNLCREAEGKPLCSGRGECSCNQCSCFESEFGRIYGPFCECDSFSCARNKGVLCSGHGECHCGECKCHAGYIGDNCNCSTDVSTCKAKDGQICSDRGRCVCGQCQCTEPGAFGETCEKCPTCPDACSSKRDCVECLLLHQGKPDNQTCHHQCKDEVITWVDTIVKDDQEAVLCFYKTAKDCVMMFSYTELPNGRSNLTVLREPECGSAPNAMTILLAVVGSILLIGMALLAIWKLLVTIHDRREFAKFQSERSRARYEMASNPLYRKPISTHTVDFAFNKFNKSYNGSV

αvβ5 integrin = target: T2, αvβ5 integrin (Mus musculus, UniProt O70309+P43406); settings: B82L mouse fibroblasts, competing concentrations; McQuade et al., 2006; cited from earlier work
T2 construct: B82L mouse fibroblasts expressing this integrin; endogenous in cells; host or cells: B82L mouse fibroblasts
T2 sequence (P43406 31-1044): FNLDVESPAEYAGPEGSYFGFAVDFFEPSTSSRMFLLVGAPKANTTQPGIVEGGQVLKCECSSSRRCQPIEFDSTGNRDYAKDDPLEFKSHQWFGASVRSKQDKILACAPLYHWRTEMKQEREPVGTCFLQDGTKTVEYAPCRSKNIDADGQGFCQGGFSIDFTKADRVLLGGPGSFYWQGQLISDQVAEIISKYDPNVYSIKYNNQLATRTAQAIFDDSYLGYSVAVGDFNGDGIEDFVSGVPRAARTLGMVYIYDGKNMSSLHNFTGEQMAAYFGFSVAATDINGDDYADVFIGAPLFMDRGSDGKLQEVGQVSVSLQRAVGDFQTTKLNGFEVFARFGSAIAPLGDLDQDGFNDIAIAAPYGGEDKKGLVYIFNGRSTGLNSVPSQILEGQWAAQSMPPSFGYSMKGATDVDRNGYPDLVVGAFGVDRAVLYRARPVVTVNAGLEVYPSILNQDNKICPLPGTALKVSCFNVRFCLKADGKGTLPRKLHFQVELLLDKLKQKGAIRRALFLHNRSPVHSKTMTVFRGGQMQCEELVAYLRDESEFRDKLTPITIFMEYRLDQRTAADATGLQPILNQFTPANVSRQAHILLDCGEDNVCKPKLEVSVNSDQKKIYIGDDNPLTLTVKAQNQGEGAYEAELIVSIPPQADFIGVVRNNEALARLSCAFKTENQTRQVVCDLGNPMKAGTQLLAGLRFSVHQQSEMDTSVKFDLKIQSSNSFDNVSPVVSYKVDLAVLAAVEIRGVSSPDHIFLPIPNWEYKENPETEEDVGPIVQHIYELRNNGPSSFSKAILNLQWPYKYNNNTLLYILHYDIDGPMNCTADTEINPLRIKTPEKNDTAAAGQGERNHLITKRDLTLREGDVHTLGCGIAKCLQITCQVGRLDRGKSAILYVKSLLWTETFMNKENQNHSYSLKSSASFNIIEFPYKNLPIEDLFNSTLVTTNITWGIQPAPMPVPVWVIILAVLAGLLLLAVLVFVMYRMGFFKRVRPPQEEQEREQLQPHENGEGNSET
T2 sequence (O70309 24-798): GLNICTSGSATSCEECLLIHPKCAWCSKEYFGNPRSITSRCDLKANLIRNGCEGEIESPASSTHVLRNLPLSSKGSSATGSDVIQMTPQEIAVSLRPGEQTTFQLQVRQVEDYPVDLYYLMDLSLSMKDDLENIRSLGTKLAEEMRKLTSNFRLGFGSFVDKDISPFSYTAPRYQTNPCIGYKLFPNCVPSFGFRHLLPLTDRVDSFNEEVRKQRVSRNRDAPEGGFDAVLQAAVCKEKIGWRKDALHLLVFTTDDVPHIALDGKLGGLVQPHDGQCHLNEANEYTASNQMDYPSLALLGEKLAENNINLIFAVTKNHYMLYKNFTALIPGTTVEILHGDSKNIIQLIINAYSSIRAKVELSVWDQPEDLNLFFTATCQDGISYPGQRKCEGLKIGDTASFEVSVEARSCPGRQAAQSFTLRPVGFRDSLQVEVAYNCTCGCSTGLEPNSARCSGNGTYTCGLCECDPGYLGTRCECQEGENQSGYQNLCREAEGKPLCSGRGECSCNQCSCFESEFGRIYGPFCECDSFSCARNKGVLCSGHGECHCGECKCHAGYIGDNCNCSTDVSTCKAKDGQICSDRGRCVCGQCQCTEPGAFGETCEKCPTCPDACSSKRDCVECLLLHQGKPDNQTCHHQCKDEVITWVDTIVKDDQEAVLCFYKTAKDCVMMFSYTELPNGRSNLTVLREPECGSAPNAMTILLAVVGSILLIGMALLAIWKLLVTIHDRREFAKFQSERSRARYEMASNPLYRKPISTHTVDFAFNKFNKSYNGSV

[4] = test system: MDA-MB-231 human mammary carcinoma cells; experiment: Rescue of proliferation in siRNA-treated cells by mouse Sdc1 constructs; assay type: cell-based; settings: MDA-MB-231, endogenous human Sdc1 silenced, mouse construct expressed
Method: Full length mouse Sdc1 (FLmS1),GPI linked mS1ED (GPImS1ED) or a construct of mouse Sdc1 in which the heparan sulfate attachment sites are mutated (TDM) were stably transfected into MDA-MB-231 cells and selected with 1.5 mg/ml G418 (Gibco BRL). These stable transfectants were maintained in culture in the presence of G418 and were checked periodically for constant expression of FLmS 1, GPImS1ED or TDM. Cells expressing these transgenes at similar levels were sorted by FACS before the experiments. Cells transfected with the empty pcDNA3 vector (NEO) were used as control.
Silencing of human Sdc1 with specific short interfering RNA (siRNA). Purified, duplexed siRNAs specific for human Sdc1 were purchased from Ambion (Austin, Tex.). The siRNA sequences targeting human Sdc1 were: hsdc1-1, […]; hsdc1-2, […]; hsdc1-3, […]. […]
Assessment of Cell Growth. To quantify cell proliferation, cells grown in matrigel (3D culture) or on top of matrigel (2D culture) were released from the matrigel by 45-60 min incubation at 37° C. with Dispase (BD Biosciences), washed with Dulbecco's modified Eagle's medium (DMEM) 2-3 times and resuspended into 400 ul fresh DMEM for cell counting by hemocytometer. Triplicate wells, replicated in at least three experiments, were used for the quantification.

B1: soluble syndecan-4 ectodomain: soluble syndecan-4 ectodomain, specificity control (protein, UniProt P31431 19-145, looked up)
extracellular domain: ESIRETEVIDPQDLLEGRYFSGALPDDEDVVGPGQESDDFELSGSGDLDDLEDSMIGPEVVHPLVPLDNHIPERAGSGSQVPTEPKKLEENEVIPKRISPVEESEDVSNKVSMSSTVQGSNIFERTE
modifications: extracellular domain
notes: soluble syndecan-4 ectodomain, specificity control
inhibition of MDA-MB-231 cell spreading [1]: fails to compete

B2: free ectodomain: free ectodomain from culture medium of syndecan 1-transfected S115 or normal murine mammary gland cells, bearing heparan sulfate (Mali et al., 1994) (protein, UniProt P18828 23-255, looked up)
extracellular domain: QIVAVNVPPEDQDGSGDDSDNFSGSGTGALPDTLSRQTPSTWKDVWLLTATPTAPEPTSSNTETAFTSVLPAGEKPEEGEPVLHVEAEPGFTARDKEKEVTTRPRETVQLPITQRASTVRVTTAQAAVTSHPHGGMQPGLHETSAPTAPGQPDHQPPRVEGGGTSVIKEVVEDGTANQLPAGEGSGEQDFTFETSGENTAVAAVEPGLRNQPPVDEGATGASQSLLDRKEVLG
modifications: extracellular domain heparan sulfate
growth of S115 tumor cells [2]: suppress the growth

B3: Soluble murine Sdc1 ectodomain: soluble murine Sdc1 ectodomain (Beauvais and Rapraeger, 2003) (protein, UniProt P18828 23-255, looked up)
extracellular domain: QIVAVNVPPEDQDGSGDDSDNFSGSGTGALPDTLSRQTPSTWKDVWLLTATPTAPEPTSSNTETAFTSVLPAGEKPEEGEPVLHVEAEPGFTARDKEKEVTTRPRETVQLPITQRASTVRVTTAQAAVTSHPHGGMQPGLHETSAPTAPGQPDHQPPRVEGGGTSVIKEVVEDGTANQLPAGEGSGEQDFTFETSGENTAVAAVEPGLRNQPPVDEGATGASQSLLDRKEVLG
modifications: extracellular domain
inhibition of MDA-MB-231 cell spreading [1]: competitively inhibits
inhibition in short-term migration assays (MDA-MB-231 cell): competitively inhibits

B4: recombinant Sdc1 ectodomain: recombinant Sdc1 ectodomain added at competing concentrations (McQuade et al., 2006) (protein, UniProt P18828 23-255, looked up)
extracellular domain: QIVAVNVPPEDQDGSGDDSDNFSGSGTGALPDTLSRQTPSTWKDVWLLTATPTAPEPTSSNTETAFTSVLPAGEKPEEGEPVLHVEAEPGFTARDKEKEVTTRPRETVQLPITQRASTVRVTTAQAAVTSHPHGGMQPGLHETSAPTAPGQPDHQPPRVEGGGTSVIKEVVEDGTANQLPAGEGSGEQDFTFETSGENTAVAAVEPGLRNQPPVDEGATGASQSLLDRKEVLG
modifications: extracellular domain
co-precipitation of the integrin with Sdc1 [3]: disrupted
αvβ5 integrin activity (αvβ5 integrin): inactivated

B5: mouse Sdc1: Full length mouse Sdc1 stably transfected into MDA-MB-231 cells (protein, UniProt P18828 1-311, looked up)
chain: MRRAALWLWLCALALRLQPALPQIVAVNVPPEDQDGSGDDSDNFSGSGTGALPDTLSRQTPSTWKDVWLLTATPTAPEPTSSNTETAFTSVLPAGEKPEEGEPVLHVEAEPGFTARDKEKEVTTRPRETVQLPITQRASTVRVTTAQAAVTSHPHGGMQPGLHETSAPTAPGQPDHQPPRVEGGGTSVIKEVVEDGTANQLPAGEGSGEQDFTFETSGENTAVAAVEPGLRNQPPVDEGATGASQSLLDRKEVLGGVIAGGLVGLIFAVCLVAFMLYRMKKKDEGSYSLEEPKQANGGAYQKPTKQEEFYA
modifications: full-length
notes: Full length mouse Sdc1 stably transfected into MDA-MB-231 cells
rescue of proliferation in siRNA-treated cells [4]: Rescue of proliferation; also recorded: rescues proliferation
